B1: CPEB3 Ribozyme (parent)
chain: GGGGGCCACAGCAGAAGCGUUCACGUCGCGGCCCCUGUCAGAUUCUGGUGAAUCUGCGAAUUCUGCUGU

Variants of: B1
Experiment: self-cleavage, relative activity (ratio to wild type); higher = more cleavage; co-transcriptional

Variant	self-cleavage
GGGGGCCACAGCAGAAGCGUUCACGUCGCGGCCCCUGUCAAAUUCUGGUGAAUAUGCGAAUUCUGCUGU	0.904
GGGGGCCACAGCAGAAGCGUUCACGUCGCGGCCCCUGUCACAUUCUGAUGAAUCUGCGAAUUCUGCUGU	0.949
GGGGGCCACAGCAGAAGCGUUCACGUCGCGGCCCCUGUCUGAGUCUGGUGAAUCUGCGAAUUCUGCUGU	0.299
GGGGGCCACAGCAGAAGCGUUCACGUCGCGGCCCCUGUCACAUUCCGGUGAAUCUGCGAAUUCUGCUGU	0.63
GGGGGCCACAGCAGAAGCGUUCACGUCGCGGCCCCUGUCACAUUCGGGUGAAUCUGCGAAUUCUGCUGU	0.855
GGGGGCCACAGCAGAAGCGUUCACGUCGCGGCCCCUGUCAAAUUCUGGAGAAUCUGCGAAUUCUGCUGU	0.885
GGGGGCCACAGCAGAAGCGUUCACGUCGCGGCCCCUGUCAAAUUGUGGUGAAUCUGCGAAUUCUGCUGU	0.537
GGGGGCCACAGCAGAAGCGUUCACGUCGCGGCCCCUGUCAAAUUAUGGUGAAUCUGCGAAUUCUGCUGU	0.37
GGGGGCCACAGCAGAAGCGUUCACGUCGCGGCCCCUGUCACAUUCUGGUGAAUCUGCGAAUUUUGCUGU	0.685
GGGGGCCACAGCAGAAGCGUUCACGUCGCGGCCCCUGUCACAUUCUGGUGAAUCUGCGAAUUGUGCUGU	0.382
GGGGGCCACAGCAGAAGCGUUCACGUCGCGGCCCCUGUCUGAUUCUGGUGAAUCUGCGAAUUCCGCUGU	0.388
GGGGGCCACAGCAGAAGCGUUCACGUCGCGGCCCCUGUCAAAUUCUGGUGAAUCUGCGAAUUCUGCUGU	0.906
GGGGGCCACAGCAGAAGCGUUCACGUCGCGGCCCCUGUCACAUUCUGGUGAAUCUGCGAAUUCUGCUGU	0.891
GGGGGCCACAGCAGAAGCGUUCACGUCGCGGCCCCUGUCAAAUUCUGGUGAAUCUGCGAAUUCUGCUAU	0.979
GGGGGCCACAGCAGAAGCGUUCACGUCGCGGCCCCUGUCAAAUUCUGGUGAAUCCGCGAAUUCUGCUGU	0.491
GGGGGCCACAGCAGAAGCGUUCACGUCGCGGCCCCUGUCAAAUUCUGGUCAAUCUGCGAAUUCUGCUGU	0.453
GGGGGCCACAGCAGAAGCGUUCACGUCGCGGCCCCUGUCAAAUUCUGGUUAAUCUGCGAAUUCUGCUGU	0.686
GGGGGCCACAGCAGAAGCGUUCACGUCGCGGCCCCUGUCAAAUUCUAGUGAAUCUGCGAAUUCUGCUGU	0.979
GGGGGCCACAGCAGAAGCGUUCACGUCGCGGCCCCUGUCAAAUUCUUGUGAAUCUGCGAAUUCUGCUGU	0.98
GGGGGCCACAGCAGAAGCGUUCACGUCGCGGCCCCUGUCAAAUUCUGGUGAAUCUGCCAAUUCUGCUGU	0.86
GGGGGCCACAGCAGAAGCGUUCACGUCGCGGCCCCUGUCAAAUUCUGGUGAAUCUGCAAAUUCUGCUGU	0.906
GGGGGCCACAGCAGAAGCGUUCACGUCGCGGCCCCUGUCAAAUUCUGGUGAAUCUGCUAAUUCUGCUGU	0.921
GGGGGCCACAGCAGAAGCGUUCACGUCGCGGCCCCUGUCAAAUUCUGGUGAAUCUACGAAUUCUGCUGU	0.77
GGGGGCCACAGCAGAAGCGUUCACGUCGCGGCCCCUGUCAAAUUCUGGUGAAUCUGCGAAUUCAGCUGU	0.419
GGGGGCCACAGCAGAAGCGUUCACGUCGCGGCCCCUGUCACAUUCUGGUGAAUCUGCGAAUACUGCUGU	0.294
GGGGGCCACAGCAGAAGCGUUCACGUCGCGGCCCCUGUCACAUUCUUGUGAAUCUGCGAAUUCUGCUGU	0.935

Variant	self-cleavage
GGGGGCCACAGCAGAAGCGUUCACGUCGCGGCCCCUGUCACAUUCUCGUGAAUCUGCGAAUUCUGCUGU	0.939
GGGGGCCACAGCAGAAGCGUUCACGUCGCGGCCCCUGUCAAAUUCUGGUGAAUCUGCGAAUUAUGCUGU	0.329
GGGGGCCACAGCAGAAGCGUUCACGUCGCGGCCCCUGUCAAAUUCUGGUGAAUCUGCGUAUUCUGCUGU	0.332
GGGGGCCACAGCAGAAGCGUUCACGUCGCGGCCCCUGUCAAAUUCUGGUGAAUCUGCGGAUUCUGCUGU	0.774
GGGGGCCACAGCAGAAGCGUUCACGUCGCGGCCCCUGUCUGAUACUGGUGAAUCUGCGAAUUCUGCUGU	0.609
GGGGGCCACAGCAGAAGCGUUCACGUCGCGGCCCCUGUCAAAGUCUGGUGAAUCUGCGAAUUCUGCUGU	0.241
GGGGGCCACAGCAGAAGCGUUCACGUCGCGGCCCCUGUCACAUUCUGGUGAAUAUGCGAAUUCUGCUGU	0.931
GGGGGCCACAGCAGAAGCGUUCACGUCGCGGCCCCUGUCACAUUCUGGUGAAUUUGCGAAUUCUGCUGU	0.906
GGGGGCCACAGCAGAAGCGUUCACGUCGCGGCCCCUGUCACAUUCUGGUGAAUGUGCGAAUUCUGCUGU	0.98
GGGGGCCACAGCAGAAGCGUUCACGUCGCGGCCCCUGUCAAAUUCUGGUGACUCUGCGAAUUCUGCUGU	0.388
GGGGGCCACAGCAGAAGCGUUCACGUCGCGGCCCCUGUCACAUUCUGGUGAGUCUGCGAAUUCUGCUGU	0.609
GGGGGCCACAGCAGAAGCGUUCACGUCGCGGCCCCUGUCACAUUCUGGUGAUUCUGCGAAUUCUGCUGU	0.415
GGGGGCCACAGCAGAAGCGUUCACGUCGCGGCCCCUGUCACAUUCUGGUGAAUCUGAGAAUUCUGCUGU	0.285
GGGGGCCACAGCAGAAGCGUUCACGUCGCGGCCCCUGUCACAUUCUGGUGAAUCUGGGAAUUCUGCUGU	0.249
GGGGGCCACAGCAGAAGCGUUCACGUCGCGGCCCCUGUCAAAUCCUGGUGAAUCUGCGAAUUCUGCUGU	0.413
GGGGGCCACAGCAGAAGCGUUCACGUCGCGGCCCCUGUCAAAUACUGGUGAAUCUGCGAAUUCUGCUGU	0.302
GGGGGCCACAGCAGAAGCGUUCACGUCGCGGCCCCUGUCACAUUCUGGUGAAUCUGCGUAUUCUGCUGU	0.271
GGGGGCCACAGCAGAAGCGUUCACGUCGCGGCCCCUGUCACAUUCUGGUGAAUCUGCUAAUUCUGCUGU	0.962
GGGGGCCACAGCAGAAGCGUUCACGUCGCGGCCCCUGUCACAUUCUGGUGAAUCUGCCAAUUCUGCUGU	0.85
GGGGGCCACAGCAGAAGCGUUCACGUCGCGGCCCCUGUCACGUUCUGGUGAAUCUGCGAAUUCUGCUGU	0.754
GGGGGCCACAGCAGAAGCGUUCACGUCGCGGCCCCUGUCACAUUCUGGUGAAUCUGCGAAUUCUCCUGU	0.316
GGGGGCCACAGCAGAAGCGUUCACGUCGCGGCCCCUGUCACAUUCUGGUGAAUCUGCGAAUUCCGCUGU	0.394
GGGGGCCACAGCAGAAGCGUUCACGUCGCGGCCCCUGUCAAAUUCGGGUGAAUCUGCGAAUUCUGCUGU	0.904
GGGGGCCACAGCAGAAGCGUUCACGUCGCGGCCCCUGUCAAAUUCUGGUGAAUCUGCGAAUUCUACUGU	0.482
GGGGGCCACAGCAGAAGCGUUCACGUCGCGGCCCCUGUCACAUUCUGGUGAAUCUGCGAAUUCUGCCGU	0.776
GGGGGCCACAGCAGAAGCGUUCACGUCGCGGCCCCUGUCAAAUUCUGGUGAAUCUGCGAAUUCUGAUGU	0.388

Variant	self-cleavage
GGGGGCCACAGCAGAAGCGUUCACGUCGCGGCCCCUGUCAAAUUCUGGUGAAUCUGCGAAUUCUGUUGU	0.756
GGGGGCCACAGCAGAAGCGUUCACGUCGCGGCCCCUGUCACAUUCUGGUCAAUCUGCGAAUUCUGCUGU	0.325
GGGGGCCACAGCAGAAGCGUUCACGUCGCGGCCCCUGUCACAUUCUGGUAAAUCUGCGAAUUCUGCUGU	0.693
GGGGGCCACAGCAGAAGCGUUCACGUCGCGGCCCCUGUCACAUUCUGGUUAAUCUGCGAAUUCUGCUGU	0.698
GGGGGCCACAGCAGAAGCGUUCACGUCGCGGCCCCUGUCACAUUCUGGUGAAUCAGCGAAUUCUGCUGU	0.549
GGGGGCCACAGCAGAAGCGUUCACGUCGCGGCCCCUGUCACAUUCUGGUGAAUCGGCGAAUUCUGCUGU	0.369
GGGGGCCACAGCAGAAGCGUUCACGUCGCGGCCCCUGUCUGAUUCUGGUGAAUCUGCGAACUCUGCUGU	0.258
GGGGGCCACAGCAGAAGCGUUCACGUCGCGGCCCCUGUCUGAUUCUGGUGAAUCUGCGAAAUCUGCUGU	0.5
GGGGGCCACAGCAGAAGCGUUCACGUCGCGGCCCCUGUCACAUUCUGGUGAAUCUGCGAAAUCUGCUGU	0.484
GGGGGCCACAGCAGAAGCGUUCACGUCGCGGCCCCUGUCACAUUCUGGGGAAUCUGCGAAUUCUGCUGU	0.899
GGGGGCCACAGCAGAAGCGUUCACGUCGCGGCCCCUGUCAAAUUCUGCUGAAUCUGCGAAUUCUGCUGU	0.876
GGGGGCCACAGCAGAAGCGUUCACGUCGCGGCCCCUGUCAAAUUCUGUUGAAUCUGCGAAUUCUGCUGU	0.987
GGGGGCCACAGCAGAAGCGUUCACGUCGCGGCCCCUGUCAAAUUCUGGUGAAUCUGCGAGUUCUGCUGU	0.464
GGGGGCCACAGCAGAAGCGUUCACGUCGCGGCCCCUGUCACAUUCUGGUGAAUCUGCGAAUUCUGUUGU	0.75
GGGGGCCACAGCAGAAGCGUUCACGUCGCGGCCCCUGUCACAUUCUGGUGAAUCUGCGAAUUCUGAUGU	0.285
GGGGGCCACAGCAGAAGCGUUCACGUCGCGGCCCCUGUCAAAUUCUGGUGAAUCUGCGAACUCUGCUGU	0.257
GGGGGCCACAGCAGAAGCGUUCACGUCGCGGCCCCUGUCAAAUUCUGGUGAAUCUGCGAAUUCUGCCGU	0.818
GGGGGCCACAGCAGAAGCGUUCACGUCGCGGCCCCUGUCACAUUCUGGUGAAUCUCCGAAUUCUGCUGU	0.417
GGGGGCCACAGCAGAAGCGUUCACGUCGCGGCCCCUGUCAAAUUCUGGUGAACCUGCGAAUUCUGCUGU	0.318
GGGGGCCACAGCAGAAGCGUUCACGUCGCGGCCCCUGUCAAAUUCUGGUGGAUCUGCGAAUUCUGCUGU	0.797
GGGGGCCACAGCAGAAGCGUUCACGUCGCGGCCCCUGUCAAAUUCUGGUGCAUCUGCGAAUUCUGCUGU	0.483
GGGGGCCACAGCAGAAGCGUUCACGUCGCGGCCCCUGUCAAUUUCUGGUGAAUCUGCGAAUUCUGCUGU	0.49
GGGGGCCACAGCAGAAGCGUUCACGUCGCGGCCCCUGUCACAUUCUGGUGAAGCUGCGAAUUCUGCUGU	0.552
GGGGGCCACAGCAGAAGCGUUCACGUCGCGGCCCCUGUCACAUUCUGGUGGAUCUGCGAAUUCUGCUGU	0.687
GGGGGCCACAGCAGAAGCGUUCACGUCGCGGCCCCUGUCUGAUUCUGGUGAAGCUGCGAAUUCUGCUGU	0.378
GGGGGCCACAGCAGAAGCGUUCACGUCGCGGCCCCUGUCUGAUUCUGGUGAAACUGCGAAUUCUGCUGU	0.302
